The text below walks through data of the supplement of paper PMC5998384.

Data set [1] relates to HeLa Kyoto. Put plainly: solubility in G1/S (NP-40 vs SDS abundance) (log2 ratio); higher = more soluble. To be noted: cell cycle stage: G1/S.
In data set [2] the test system is HeLa Kyoto. Put plainly: melting temperature (median over replicates), in situ; higher = more thermally stable.
The test system of data set [3] is HeLa Kyoto. Nature of the data set: solubility change mitosis vs G1/S (difference of NP-40 vs SDS log2 ratios) (log2 ratio difference); higher = more soluble in mitosis.
The test system of data set [4] is HeLa Kyoto. Nature of the data set: thermal stability score vs G1/S (z-score of summed log2 fold changes over temperatures); higher = more thermally stable than in G1/S.
The mark [5] stands for this setting: cell cycle stage: early G1 (4.5 h after nocodazole release).
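Throughout, for melting temperature (median over replicates), in situ: HeLa Kyoto cells synchronized by double thymidine or nocodazole block, proteins quantified by TMT10plex mass spectrometry, three independent biological replicates.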
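Throughout, for solubility change mitosis vs G1/S (difference of NP-40 vs SDS log2 ratios): synchronized HeLa Kyoto cells (double thymidine block for G1/S, nocodazole release for mitosis), protein amounts in NP-40 versus SDS lysates quantified by mass spectrometry, three biological replicates.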
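Throughout, for solubility in G1/S (NP-40 vs SDS abundance): HeLa Kyoto cells arrested at G1/S by double thymidine block, proteins quantified by TMT10plex mass spectrometry in mild NP-40 versus SDS extracts, three biological replicates.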
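Throughout, for thermal stability score vs G1/S (z-score of summed log2 fold changes over temperatures): synchronized HeLa Kyoto cells, proteins quantified by TMT10plex mass spectrometry, three biological replicates, mitosis taken 0.5 h after nocodazole release, G1/S directly after double thymidine block.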

With “MESEQLFHRGYYRNSYNSITSASSDEELLDGAGVIMDFQTSEDDNLLDGDTAVGTHYTMTNGGSINSSTHLLDLLDEPIPGVGTYDDFHTIDWVREKCKDRERHRRINSKKKESAWEMTKSLYDAWSGWLVVTLTGLASGALAGLIDIAADWMTDLKEGICLSALWYNHEQCCWGSNETTFEERDKCPQWKTWAELIIGQAEGPGSYIMNYIMYIFWALSFAFLAVSLVKVFAPYACGSGIPEIKTILSGFIIRGYLGKWTLMIKTITLVLAVASGLSLGKEGPLVHVACCCGNIFSYLFPKYSTNEAKKREVLSAASAAGVSVAFGAPIGGVLFSLEEVSYYFPLKTLWRSFFAALVAAFVLRSINPFGNSRLVLFYVEYHTPWYLFELFPFILLGVFGGLWGAFFIRANIAWCRRRKSTKFGKYPVLEVIIVAAITAVIAFPNPYTRLNTSELIKELFTDCGPLESSSLCDYRNDMNASKIVDDIPDRPAGIGVYSAIWQLCLALIFKIIMTVFTFGIKVPSGLFIPSMAIGAIAGRIVGIAVEQLAYYHHDWFIFKEWCEVGADCITPGLYAMVGAAACLGGVTRMTVSLVVIVFELTGGLEYIVPLMAAVMTSKWVGDAFGREGIYEAHIRLNGYPFLDAKEEFTHTTLAADVMRPRRNDPPLAVLTQDNMTVDDIENMINETSYNGFPVIMSKESQRLVGFALRRDLTIAIESARKKQEGIVGSSRVCFAQHTPSLPAESPRPLKLRSILDMSPFTVTDHTPMEIVVDIFRKLGLRQCLVTHNGRLLGIITKKDILRHMAQTANQDPASIMFN [CLCN3]”, the “solubility in G1/S (log2)” value with HeLa Kyoto [1] is -0.354. Further, the melting temperature in the data set on HeLa Kyoto [2] (cell cycle stage: G1/S) and with HeLa Kyoto [2] (cell cycle stage: mitosis) was 54.9 °C each time. Besides, the “solubility change mitosis (log2)” value in the data set with HeLa Kyoto [3] is -0.0871. Moreover, the thermal stability score is -0.456 in the data set on HeLa Kyoto [4] (setting [5]) and -0.317 in the data set on HeLa Kyoto [4] (cell cycle stage: mitosis).

Take “MESMLNKLKSTVTKVTADVTSAVMGNPVTREFDVGRHIASGGNGLAWKIFNGTKKSTKQEVAVFVFDKKLIDKYQKFEKDQIIDSLKRGVQQLTRLRHPRLLTVQHPLEESRDCLAFCTEPVFASLANVLGNWENLPSPISPDIKDYKLYDVETKYGLLQVSEGLSFLHSSVKMVHGNITPENIILNKSGAWKIMGFDFCVSSTNPSEQEPKFPCKEWDPNLPSLCLPNPEYLAPEYILSVSCETASDMYSLGTVMYAVFNKGKPIFEVNKQDIYKSFSRQLDQLSRLGSSSLTNIPEEVREHVKLLLNVTPTVRPDADQMTKIPFFDDVGAVTLQYFDTLFQRDNLQKSQFFKGLPKVLPKLPKRVIVQRILPCLTSEFVNPDMVPFVLPNVLLIAEECTKEEYVKLILPELGPVFKQQEPIQILLIFLQKMDLLLTKTPPDEIKNSVLPMVYRALEAPSIQIQELCLNIIPTFANLIDYPSMKNALIPRIKNACLQTSSLAVRVNSLVCLGKILEYLDKWFVLDDILPFLQQIPSKEPAVLMGILGIYKCTFTHKKLGITKEQLAGKVLPHLIPLSIENNLNLNQFNSFISVIKEMLNRLESEHKTKLEQLHIMQEQQKSLDIGNQMNVSEEMKVTNIGNQQIDKVFNNIGADLLTGSESENKEDGLQNKHKRASLTLEEKQKLAKEQEQAQKLKSQQPLKPQVHTPVATVKQTKDLTDTLMDNMSSLTSLSVSTPKSSASSTFTSVPSMGIGMMFSTPTDNTKRNLTNGLNANMGFQTSGFNMPVNTNQNFYSSPSTVGVTKMTLGTPPTLPNFNALSVPPAGAKQTQQRPTDMSALNNLFGPQKPKVSMNQLSQQKPNQWLNQFVPPQGSPTMGSSVMGTQMNVIGQSAFGMQGNPFFNPQNFAQPPTTMTNSSSASNDLKDLFG [SCYL2]”: the “solubility in G1/S (log2)” value in the data set on HeLa Kyoto [1] amounted to 0.129. The melting temperature came out at 52.9 °C with HeLa Kyoto [2] (cell cycle stage: G1/S) and 53.5 °C in the data set on HeLa Kyoto [2] (cell cycle stage: mitosis). For the same sequence, the “solubility change mitosis (log2)” value in the data set on HeLa Kyoto [3] was -0.174. In addition, the thermal stability score in the data set with HeLa Kyoto [4] (setting [5]) stood at 0.219; with HeLa Kyoto [4] (cell cycle stage: mitosis) it was 0.842.

On to “MESPASSQPASMPQSKGKSKRKKDLRISCMSKPPAPNPTPPRNLDSRTFITIGDRNFEVEADDLVTISELGRGAYGVVEKVRHAQSGTIMAVKRIRATVNSQEQKRLLMDLDINMRTVDCFYTVTFYGALFREGDVWICMELMDTSLDKFYRKVLDKNMTIPEDILGEIAVSIVRALEHLHSKLSVIHRDVKPSNVLINKEGHVKMCDFGISGYLVDSVAKTMDAGCKPYMAPERINPELNQKGYNVKSDVWSLGITMIEMAILRFPYESWGTPFQQLKQVVEEPSPQLPADRFSPEFVDFTAQCLRKNPAERMSYLELMEHPFFTLHKTKKTDIAAFVKEILGEDS [MAP2K3]”, for which the “solubility in G1/S (log2)” value with HeLa Kyoto [1] was -0.00226. Further, the results for the melting temperature in the data set on HeLa Kyoto [2] (cell cycle stage: G1/S) and with HeLa Kyoto [2] (cell cycle stage: mitosis) were 48.8 °C and 50.1 °C, respectively. For the same sequence, the “solubility change mitosis (log2)” value in the data set on HeLa Kyoto [3] is -0.112. The thermal stability score in the data set on HeLa Kyoto [4] (setting [5]) is 1.81; in the data set on HeLa Kyoto [4] (cell cycle stage: mitosis) it was 2.08.

On to “MESSPFNRRQWTSLSLRVTAKELSLVNKNKSSAIVEIFSKYQKAAEETNMEKKRSNTENLSQHFRKGTLTVLKKKWENPGLGAESHTDSLRNSSTEIRHRADHPPAEVTSHAASGAKADQEEQIHPRSRLRSPPEALVQGRYPHIKDGEDLKDHSTESKKMENCLGESRHEVEKSEISENTDASGKIEKYNVPLNRLKMMFEKGEPTQTKILRAQSRSASGRKISENSYSLDDLEIGPGQLSSSTFDSEKNESRRNLELPRLSETSIKDRMAKYQAAVSKQSSSTNYTNELKASGGEIKIHKMEQKENVPPGPEVCITHQEGEKISANENSLAVRSTPAEDDSRDSQVKSEVQQPVHPKPLSPDSRASSLSESSPPKAMKKFQAPARETCVECQKTVYPMERLLANQQVFHISCFRCSYCNNKLSLGTYASLHGRIYCKPHFNQLFKSKGNYDEGFGHRPHKDLWASKNENEEILERPAQLANARETPHSPGVEDAPIAKVGVLAASMEAKASSQQEKEDKPAETKKLRIAWPPPTELGSSGSALEEGIKMSKPKWPPEDEISKPEVPEDVDLDLKKLRRSSSLKERSRPFTVAASFQSTSVKSPKTVSPPIRKGWSMSEQSEESVGGRVAERKQVENAKASKKNGNVGKTTWQNKESKGETGKRSKEGHSLEMENENLVENGADSDEDDNSFLKQQSPQEPKSLNWSSFVDNTFAEEFTTQNQKSQDVELWEGEVVKELSVEEQIKRNRYYDEDEDEE [LIMA1]”, for which the “solubility in G1/S (log2)” value in the data set with HeLa Kyoto [1] was -1.45. Further, the values for the melting temperature in the data set with HeLa Kyoto [2] (cell cycle stage: G1/S) and in the data set on HeLa Kyoto [2] (cell cycle stage: mitosis) were 57.9 °C and 54.3 °C, respectively. In the data set with HeLa Kyoto [3], the “solubility change mitosis (log2)” value was 0.392. For the same sequence, the thermal stability score in the data set with HeLa Kyoto [4] (setting [5]) is -0.923; in the data set with HeLa Kyoto [4] (cell cycle stage: mitosis), -3.34.

As for “MESSSSSNSYFSVGPTSPSAVVLLYSKELKKWDEFEDILEERRHVSDLKFAMKCYTPLVYKGITPCKPIDIKCSVLNSEEIHYVIKQLSKESLQSVDVLREEVSEILDEMSHKLRLGAIRFCAFTLSKVFKQIFSKVCVNEEGIQKLQRAIQEHPVVLLPSHRSYIDFLMLSFLLYNYDLPVPVIAAGMDFLGMKMVGELLRMSGAFFMRRTFGGNKLYWAVFSEYVKTMLRNGYAPVEFFLEGTRSRSAKTLTPKFGLLNIVMEPFFKREVFDTYLVPISISYDKILEETLYVYELLGVPKPKESTTGLLKARKILSENFGSIHVYFGDPVSLRSLAAGRMSRSSYNLVPRYIPQKQSEDMHAFVTEVAYKMELLQIENMVLSPWTLIVAVLLQNRPSMDFDALVEKTLWLKGLTQAFGGFLIWPDNKPAEEVVPASILLHSNIASLVKDQVILKVDSGDSEVVDGLMLQHITLLMCSAYRNQLLNIFVRPSLVAVALQMTPGFRKEDVYSCFRFLRDVFADEFIFLPGNTLKDFEEGCYLLCKSEAIQVTTKDILVTEKGNTVLEFLVGLFKPFVESYQIICKYLLSEEEDHFSEEQYLAAVRKFTSQLLDQGTSQCYDVLSSDVQKNALAACVRLGVVEKKKINNNCIFNVNEPATTKLEEMLGCKTPIGKPATAKL [GNPAT]”, the “solubility in G1/S (log2)” value in the data set with HeLa Kyoto [1] was -0.227. In addition, the melting temperature in the data set on HeLa Kyoto [2] (cell cycle stage: G1/S) is 53.4 °C; in the data set on HeLa Kyoto [2] (cell cycle stage: mitosis) it was 53.7 °C. Also, the “solubility change mitosis (log2)” value with HeLa Kyoto [3] is -0.163. The figures for the thermal stability score in the data set with HeLa Kyoto [4] (setting [5]) and in the data set with HeLa Kyoto [4] (cell cycle stage: mitosis) were -0.31 and -0.298, respectively.
